Measurements taken from FireProtDB (doi:10.1093/protein/7.9.1089).
Several values for one entry are separate records, joined by “and”; a condition that tells them apart may be missing. Equal entries are not always repeated.

B1: Ribonuclease, P00648 (parent)
chain: MMKMEGIALKKRLSWISVCLLVLVSAAGMLFSTAAKTETSSHKAHTEAQVINTFDGVADYLQTYHKLPDNYITKSEAQALGWVASKGNLADVAPGKSIGGDIFSNREGKLPGKSGRTWREADINYTSGFRNSDRILYSSDWLIYKTTDHYQTFTKIR

Variants of: B1
Details: Bacillus amyloliquefaciens, pH 4.4, Thermal, DSC, Sodium acetate/Acetic acid 6.08 mM/13.92 mM/, reversible: yes (>95%), structure 1BNI, whole UniProt chain shown; for ddG of mutation (higher = less stable) / heat capacity change of unfolding / unfolding free energy: 25 °C

| Variant | ddG of mutation (higher = less stable) | heat capacity change of unfolding [kcal/mol/K] | unfolding free energy | Tm | change of melting temperature, mutant - wild type (higher = more stable) | unfolding enthalpy (calorimetric) | unfolding enthalpy (van 't Hoff) |
| --- | --- | --- | --- | --- | --- | --- | --- |
| T63R | -0.2 kcal/mol | 1.6 | 8.86 kcal/mol | 53 °C | 1.33 °C | 126 kcal/mol | 130 kcal/mol |
| R116M | 2.86 kcal/mol | 1.6 | 5.8 kcal/mol | 45.9 °C | -5.77 °C | 106 kcal/mol | 118 kcal/mol |
| D69M | 0.27 kcal/mol | 1.6 | 8.39 kcal/mol | 50.1 °C | -1.57 °C | 129 kcal/mol | 128 kcal/mol |
| S139A | 2.83 kcal/mol | 1.6 | 5.83 kcal/mol | 44.5 °C | -7.13 °C | 111 kcal/mol | 110 kcal/mol |
| I98V | 1.86 kcal/mol | 1.6 | 6.83 kcal/mol | 47 °C | -4.53 °C | 118 kcal/mol | 114 kcal/mol |
| T73G | 2.08 kcal/mol | 1.6 | 6.58 kcal/mol | 47.6 °C | -4.06 °C | 112 kcal/mol | 118 kcal/mol |
| D101N | 2.46 kcal/mol and 2.66 kcal/mol | 1.6 | 6.2 kcal/mol and 6 kcal/mol | 44.6 °C and 44.1 °C | -7.06 °C and -7.49 °C | 117 kcal/mol and 115 kcal/mol | 113 kcal/mol and 116 kcal/mol |
| I143V | 1.18 kcal/mol and 1.17 kcal/mol | 1.6 | 7.51 kcal/mol and 7.52 kcal/mol | 49.2 °C | -2.29 °C and -2.3 °C | 120 kcal/mol and 112 kcal/mol | 125 kcal/mol and 123 kcal/mol |
| S138A | 1.38 kcal/mol and 1.16 kcal/mol | 1.6 | 7.31 kcal/mol and 7.53 kcal/mol | 46.7 °C | -4.81 °C and -4.8 °C | 126 kcal/mol and 129 kcal/mol | 116 kcal/mol and 115 kcal/mol |
| I135V | 1.47 kcal/mol | 1.6 | 7.22 kcal/mol | 48.1 °C | -3.37 °C | 119 kcal/mol | 125 kcal/mol |
| D55A | 0.69 kcal/mol | 1.6 | 7.97 kcal/mol | 49.7 °C | -1.91 °C | 124 kcal/mol | 127 kcal/mol |
| R130Q | 1.58 kcal/mol | 1.6 | 7.08 kcal/mol | 48.3 °C | -3.29 °C | 117 kcal/mol | 122 kcal/mol |
| D59G | 0.78 kcal/mol | 1.6 | 7.88 kcal/mol | 49.7 °C | -1.95 °C | 123 kcal/mol | 124 kcal/mol |
